{"source": "the DeepSol protein solubility set", "data": [{"experiment": "soluble on expression in E. coli; label from the status in PepcDB or PDB records", "values": [{"sequence": "MKKVIGIGEYAVMKNPGVIVTLGLGSCVAVCMRDPVAKVGAMAHVMLPDSGGKTDKPGKYADTAVKTLVEELKKMGAKVERLEAKIAGGASMFESKGMNIGARNVEAVKKHLKDFGIKLLAEDTGGNRARSVEYNIETGKLLVRKVGGGEQLEIKEI", "soluble on expression in E. coli": "soluble"}, {"sequence": "MAGDPMNIDYSVLKKYPLCDRCFGRLYGKLIRSSNFDRGHALKLAKAIELEEDLRTALEKMNETPENSEVNPTDLEKLEEIKELMYALHKTGTSGIKLDLIDDIEKYETKFKNEAEYEKNEECDELCPWCKGIFEPENIEKVAENVVEALSEYEFDSFLVGTKLPKRFKELENEIETPFMESIRQEFGRELGKVVVPLIKRRVDKENPDIVVMVNPYNQKVTLQVNPVFIKGRYKKLVRGIPQSHWDCRSCRGKGCEKCNFTGKQYMTSVEEIIAEPFMDVMKGSSEALHGAGREDIDVRMLGHGRPFVIEIKEPKIRKVNLEELASKVNESGNVEIINVEYGVKKDVHFFKNEPHKKTYLAHVECEEKVSNEEVAELVKKLEDLTIDQRTPDRVSHRRADLVRVRKVYKAWPHMIDDYNFELKIFCDGGLYIKELINSDEGRTTPSVSELLNKKCICKFLDVLDVHDYEDAENILEHHHHHH", "soluble on expression in E. coli": "soluble"}, {"sequence": "SAKNAYTKLGTDDNAQLLDIRATADFRQVGSPNIKGLGKKAVSTVYNGEDKPGFLKKLSLKFKDPENTTLYILDKFDGNSELVAELVALNGFKSAYAIKDGAEGPRGWLNSSLPWIEPKKT", "soluble on expression in E. coli": "soluble"}, {"sequence": "MGSDKIHHHHHHMRIFDAHCDALLKLWEDPAREYTDDPAIEANAVRLMEGGVRAQCFAIFVGPNIPFDQKFQVALQQAELFHEKILKKHPQFSFIERWDDLLTLDADQIGAILTLEGADPFGDDPTKLKTLYRLGVRSLGLTWNQANLCADGVGEPRGGGLTEWGKAVVSLNNEHHVLTDVSHLSERGFWDVIEYAQFPVATHSNAKAICKHRRNLTDAQLKALIEAGGFIGIVFHPHFLTGTDDASIDDVMKHIEHICSLGGQKHVGFGSDFDGIPCFVDGLEHAGRFQWFMDELLKRYDEELVRGFAWDNFLKATPISYV", "soluble on expression in E. coli": "not soluble"}, {"sequence": "AHHHHHHGSTKRVKVITDPEVIKVMLEDTRRKILQLLRNREMTISQLSEILGKMPQTIYHHIEKLKEAGLVEVKRTEMKGNLVEKYYGRTADVFYINLYMGDEELRYLARSRLKTKLDIFKKLGYKFDEEELLNVMDRILEKEHEVKVEISKEIENVEDSLKEFSNEDIIHAIEWLAMARLAQDEEYIELVKKLGQILKR", "soluble on expression in E. coli": "soluble"}, {"sequence": "MLNVESHVLRYWEEELEIKIPRNEMGHRYYTEDNIESLRKVRDLKKQGYSLKAIKNMVNPKKATRENKESNERLTVRQPISLMEVREKKVGVENCYQEVPEAMSGSVQSVVQNMTQSNGQNAESAGLKLEQFQNLMNKVVSKALKESTTNLGKELSDNVSENVLKGMNYMMRVQDEKEEERYRKLDELMRNKQKLSRREKRKKAKAEKLLLKNKKKGMAHFGKKPQTT", "soluble on expression in E. coli": "not soluble"}, {"sequence": "MDIKNWSVYNKLYVGGGISDDVQTNTSETYDKEKDCWTLDNGHLVPHNYIMYKCEPVKHRYPLEKTQYTNDFLKYLESFIGS", "soluble on expression in E. coli": "not soluble"}, {"sequence": "MGSDKIHHHHHHMTDDIYFAPLLPWQHGLWSQLTMRVLAQKQSLPHALLAAGMQGMGKRAFVWRLVAWLLCRARDEHPLGACGHCESCQWLRSGTHPSLQALPLISLPISADNAHTQEVASGTAKDKKTTKAASNGSLKIKVDEIRALQPFIYQGGQGMRICVLDHAEQMTIAAANALLKTLEEPQAQVHLFLISDAPAQLLPTIKSRVQQLSLQTIDPAIAVDYVTKVLGSTVHREALGTDVIEQLIQLANGAPLAAVALAQAPWYSKRALWLTTWQALRSGKRSSVAASDYWQIHLGIAEFIRLSELMVIDIRRVGLGFEAQQKDINFSTTLNGYQPIDNELEAFAHSLQQTKIALQQNVQEKFAYDKLMQELACL", "soluble on expression in E. coli": "not soluble"}, {"sequence": "GAMGSGDTQLFNRAVSMVEKNKDIRSLLQCDDGITGKERLKAYGELITNDKWTRNRPIVSTKKLDKEGRTHHYMRFHVESKKKIALVHLEAKESKQNYQPDFINMYVDVPGEKRYYLIKPKLHPVSN", "soluble on expression in E. coli": "soluble"}, {"sequence": "MAHHHHHHMIERTDVVTGTETQEGSTVPQEARQFLQIIATMQSESEERARIIGELRYRKLLVEEERDKNFMEREAVVAKLADARAQLLQLDVEHRELQKRQRSSESEILENSRQSQRCRTLLSTCRGDLTVHPMVPNSASELAAEATAAGTSSAAHNAYTEEAKWLKHLFITYGQLYNGTDFLQELRVSMKNLYVEVSKETHNTVQRNLSDWEATCLQSLPHLTADERTLLHFQLMLHPFV", "soluble on expression in E. coli": "not soluble"}]}]}
